Experimental data as given in patent publication US20260022175A1 (Chugai, published 2026).

Legend:
[1] = target: T1, human FcγRIIb extracellular domain with C-terminal His-tag (human, UniProt P31994 43-217); test: SPR; FcγRIIb bound amount per unit captured Ab
T1 construct: extracellular domain; also called hFcγR IIb
T1 sequence (looked up): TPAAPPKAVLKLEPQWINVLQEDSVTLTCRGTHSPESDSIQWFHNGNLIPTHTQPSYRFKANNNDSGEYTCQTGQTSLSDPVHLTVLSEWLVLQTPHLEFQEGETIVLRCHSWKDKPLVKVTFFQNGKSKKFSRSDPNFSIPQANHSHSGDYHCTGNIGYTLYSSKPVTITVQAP
Description: (§1) The interaction between the generated antibodies and human FcγRs was analyzed by the following method using Biacore T200. 50 mM Na-Phosphate, 150 mM NaCl, 0.05% Tween20 (pH 7.4) was used as the running buffer, and the assay was performed at 25° C. For the sensor chips, Series S SA (GE Healthcare) chips onto which CaptureSelect Human Fab-lambda Kinetics Biotin Conjugate (Thermo Fisher Scientific) was immobilized were used. The antibodies of interest were captured onto these chips and each FcγR diluted in the running buffer was allowed to interact with them. Chips were regenerated with 10 mM Glycine-HCl (pH 1.5) and 25 mM NaOH, and assay was performed by repeatedly capturing antibodies. The dissociation constants KD (mol/L) for FcγRs of each antibody were calculated using Biacore T200 Evaluation Software 2.0, using the 1:1 Langmuir binding model for FcγRIa and FcγRIIIa and the steady state affinity model for FcγRIIa. For FcγRIIb, the binding amount of FcγRIIb per unit amount of antibody was calculated by correcting the binding amount of FcγRIIb obtained from the sensorgram obtained by the measurement with the amount of antibody captured onto the chip surface.

[2] = target: T2, human FcRn (human, UniProt P55899 24-290; P61769 21-119); test: SPR Biacore T200, captured Ab, pH 6.0, steady state
T2 construct: Prepared by the method of WO 2010/107110; also called hFcRn
Description: The interaction between the generated antibodies and human FcRn was analyzed by the following method using Biacore T200. 50 mM Na-Phosphate, 150 mM NaCl, 0.05% Tween20 (pH 6.0) was used as the running buffer, and the assay was performed at 25° C. For the sensor chip, Series S SA (GE Healthcare) chips onto which CaptureSelect Human Fab-lambda Kinetics Biotin Conjugate (Thermo Fisher Scientific) was immobilized were used. The antibodies of interest were captured onto these chips and FcRn diluted in the running buffer was allowed to interact with them. Chips were regenerated with 10 mM Glycine-HCl (pH 1.5) and 25 mM NaOH, and assay was performed by repeatedly capturing antibodies. The dissociation constant for FcRn of each antibody was calculated using the steady state model, using Biacore T200 Evaluation Software 2.0.

[3] = target: T3, human FcγRIIa H allotype extracellular domain with C-terminal His-tag (human, UniProt P12318 34-217); test: SPR; KD of 04H1656-G1m/04L1610-lam1 divided by KD of variant
T3 construct: extracellular domain; also called hFcγR IIa H
T3 sequence (looked up): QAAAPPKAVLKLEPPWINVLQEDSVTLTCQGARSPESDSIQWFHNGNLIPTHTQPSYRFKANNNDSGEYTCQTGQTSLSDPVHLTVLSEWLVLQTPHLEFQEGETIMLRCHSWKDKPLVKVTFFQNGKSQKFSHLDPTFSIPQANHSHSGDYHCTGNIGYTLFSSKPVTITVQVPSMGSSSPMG

[4] = target: T4, human FcγRIIa R allotype extracellular domain with C-terminal His-tag (human, UniProt P12318 34-217); test: as above
T4 construct: extracellular domain; also called hFcγR IIa R
T4 sequence (looked up): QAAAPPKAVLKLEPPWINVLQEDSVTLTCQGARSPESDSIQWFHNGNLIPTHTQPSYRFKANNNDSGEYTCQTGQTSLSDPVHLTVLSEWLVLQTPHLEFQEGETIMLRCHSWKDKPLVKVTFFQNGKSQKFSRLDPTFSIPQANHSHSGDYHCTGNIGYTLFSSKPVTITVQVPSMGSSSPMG

[5] = target: T5, human FcγRIIIa V allotype extracellular domain with C-terminal His-tag (human, UniProt P08637 17-208); test: as above
T5 construct: extracellular domain; also called hFcγR IIIa V

[6] = target: T2, human FcRn; test: as above
[7] = target: T6, human FcγRIIIa F allotype extracellular domain with C-terminal His-tag (human, UniProt P08637 17-208); test: as above
T6 construct: extracellular domain; also called hFcγR IIIa F

[8] = target: T7, human FcγRIa extracellular domain with C-terminal His-tag (human, UniProt P12314 16-292); test: as above
T7 construct: extracellular domain; also called hFcγR Ia; hFcγRIa

[9] = target: T3, human FcγRIIa H allotype extracellular …; test: SPR Biacore T200, captured Ab, pH 7.4
Description: as §1

[10] = target: T4, human FcγRIIa R allotype extracellular …; test: SPR Biacore T200, captured Ab, pH 7.4
Description: as §1

[11] = target: T5, human FcγRIIIa V allotype extracellular …; test: SPR Biacore T200, captured Ab, pH 7.4
Description: as §1

[12] = target: T6, human FcγRIIIa F allotype extracellular …; test: SPR Biacore T200, captured Ab, pH 7.4
Description: as §1

[13] = target: T7, human FcγRIa extracellular domain with …; test: SPR Biacore T200, captured Ab, pH 7.4
Description: as §1

[14] = target: T1, human FcγRIIb extracellular domain with …; test: SPR; binding amount divided by that of 04H1656-G1m/04L1610-lam1

T5 sequence (P08637 17-208 F176V): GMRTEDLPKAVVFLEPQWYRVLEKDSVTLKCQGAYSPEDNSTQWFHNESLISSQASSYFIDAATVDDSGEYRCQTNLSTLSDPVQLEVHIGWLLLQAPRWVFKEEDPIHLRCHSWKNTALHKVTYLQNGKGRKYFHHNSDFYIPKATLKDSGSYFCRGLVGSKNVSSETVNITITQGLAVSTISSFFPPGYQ
T6 sequence (P08637 17-208): as the sequence (P08637 17-208 F176V) above, with V160F counted along it
T7 sequence (P12314 16-292): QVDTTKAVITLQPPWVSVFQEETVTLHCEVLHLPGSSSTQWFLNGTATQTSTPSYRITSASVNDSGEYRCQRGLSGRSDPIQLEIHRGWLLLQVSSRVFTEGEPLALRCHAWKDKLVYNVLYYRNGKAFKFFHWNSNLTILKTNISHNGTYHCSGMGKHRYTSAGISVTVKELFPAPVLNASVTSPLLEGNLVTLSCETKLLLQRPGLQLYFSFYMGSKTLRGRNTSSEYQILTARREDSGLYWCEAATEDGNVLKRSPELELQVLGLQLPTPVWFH

Binding amount [1]: 0.014
Kd [2]: 2000 nM
Relative value to KD between G1m and hFcγRs [3]: 13.5
Relative value to KD between G1m and hFcγRs [4]: 9
Relative value to KD between G1m and hFcγRs [5]: 218
Relative value to KD between G1m and hFcRn [6]: 0.9
Relative value to KD between G1m and hFcγRs [7]: 58.1
Relative value to KD between G1m and hFcγRs [8]: 0.8
Kd [9]: 99 nM
Kd [10]: 180 nM
Kd [11]: 4.4 nM
Kd [12]: 17 nM
Kd [13]: 0.12 nM
Relative binding amount [14]: 1.7
B1: 04H1654-KT462/04L1610-lam1//04H1656-HT441/04L1610-lam1 (antibody, human IgG1, lambda)
heavy 1: QVQLVESGGGVVQPGGSLRLSCAASGFTFSSKTMNWVRQAPGKGLEWVSSISTQSHYIYYARSVRGRFTISRDNAKNSLYLQMNSLRAEDTAVYYCARYGKREDMLWVFDYWGQGTLVTVSSASTKGPSVFPLAPSSKSTSGGTAALGCLVKDYFPEPVTVSWNSGALTSGVHTFPAVLQSSGLYSLSSVVTVPSSSLGTQTYICNVNHKPSNTKVDKRVEPKSCDKTHTCPPCPAPEFQWGPMVFLFPPKPKDVLMISRTPEVTCVVVDVSDEEPEVKFNWYVDGVEVHNAKTKPREEQYNATYRVVSVLPVLHQDWLNGKEYKCKVSNDALPAPIEKTISKAKGQPREPQVYTLPPSRKEMTKNQVSLTCLVKGFYPSDIAVEWESNGQPENNYKTTPPVLDSDGSFFLYSKLTVDKSRWQQGNVFSCSVMHEALHNHYTQKSLSLSP
heavy 2: QVQLVESGGGVVQPGGSLRLSCAASGFTFSSKTMNWVRQAPGKGLEWVSSISTQSHYIYYAESVRGRFTISRDNAKNSLYLQMNSLRAEDTAVYYCARYGAREDMLWVFDYWGQGTLVTVSSASTKGPSVFPLAPSSKSTSGGTAALGCLVKDYFPEPVTVSWNSGALTSGVHTFPAVLQSSGLYSLSSVVTVPSSSLGTQTYICNVNHKPSNTKVDKRVEPKSCDKTHTCPPCPAPELLAGPSVFLFPPKPKDVLMISRTPEVTCVVVDVSHEEPEVKFNWYVDGVEVHNAKTKPREEQYNATYRVVSVLPVLHQDWLNGKEYKCKVSNDALPAPIEETISKAKGQPREPQVYTLPPSREEMTKNQVSLTCLVKGFYPSDIAVEWESNGQPENNYKTTPPVLDSDGSFFLYSKLTVDKSRWQQGNVFSCSVMHEALHNHYTQESLSLSP
light: QSALTQPPSASGSPGQSVTISCEGPSTGVGDYNWVHWYQQHPGKAPKLMIYFTSKKPSGVPDRFSGSKSGNTASLTVSGLQAEDEADYYCQTYAAPLGPMFGGGTKLTVLGQPKAAPSVTLFPPSSEELQANKATLVCLISDFYPGAVTVAWKADSSPVKAGVETTTPSKQSNNKYAASSYLSLTPEQWKSHRSYSCQVTHEGSTVEKTVAPTECS
notes: Heterodimerized antibody
